Measured values: the supplement of paper PMC11136658

Tested on: peptide library, one residue held at a place counted from the Y acceptor
Test: relative phosphorylation of the sub-library (ratio to the mean residue at this position); higher = residue favoured
Procedure, shortened: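 Within 384-well plates, purified recombinant kinases phosphorylated biotinylated Tyr-centred peptide library mixtures over 90 min using 50 μM ATP spiked with γ-32P-ATP; each mixture fixed one residue at one position from −5 to +5. Streptavidin membrane capture, rinsing, phosphorimaging and ImageQuant gave the intensities. These were normalized per position to the sum of the 18 randomized residues (16 for the Ser/Thr-free library) and multiplied by that number.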

FGFR4, construct: aa442-end, human, sequence (P22455 442-802, looked up): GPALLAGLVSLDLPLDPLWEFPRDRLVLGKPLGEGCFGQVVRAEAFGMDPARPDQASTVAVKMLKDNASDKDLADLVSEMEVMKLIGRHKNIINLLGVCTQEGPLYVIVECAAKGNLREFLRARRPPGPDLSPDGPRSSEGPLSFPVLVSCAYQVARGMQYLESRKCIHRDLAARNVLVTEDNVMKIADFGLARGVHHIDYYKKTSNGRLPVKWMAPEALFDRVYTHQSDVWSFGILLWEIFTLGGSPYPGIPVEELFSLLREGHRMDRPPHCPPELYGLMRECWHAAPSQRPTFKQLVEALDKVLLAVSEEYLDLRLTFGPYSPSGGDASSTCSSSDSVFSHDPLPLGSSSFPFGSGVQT
FLT1, construct: aa748-end, human, sequence (P17948 748-1338, looked up): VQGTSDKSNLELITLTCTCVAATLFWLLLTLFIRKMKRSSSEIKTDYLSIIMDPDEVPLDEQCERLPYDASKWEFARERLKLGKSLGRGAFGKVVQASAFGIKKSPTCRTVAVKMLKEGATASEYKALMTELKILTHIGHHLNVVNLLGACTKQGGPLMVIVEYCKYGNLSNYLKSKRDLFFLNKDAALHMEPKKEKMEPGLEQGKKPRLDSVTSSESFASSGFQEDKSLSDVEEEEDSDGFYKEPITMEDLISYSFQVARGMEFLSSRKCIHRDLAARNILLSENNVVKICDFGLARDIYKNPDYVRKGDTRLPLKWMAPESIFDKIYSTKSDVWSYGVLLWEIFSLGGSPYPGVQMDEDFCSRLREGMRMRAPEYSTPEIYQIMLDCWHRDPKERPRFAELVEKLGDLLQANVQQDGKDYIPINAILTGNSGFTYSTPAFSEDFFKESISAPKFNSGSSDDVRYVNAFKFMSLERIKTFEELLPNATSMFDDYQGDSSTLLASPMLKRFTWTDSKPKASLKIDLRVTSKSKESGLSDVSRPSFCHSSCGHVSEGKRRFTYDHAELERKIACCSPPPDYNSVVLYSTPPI

FGFR4, construct: aa442-end, human (from UniProt P22455)
relative phosphorylation
Details	at +1	at +2	at +3	at +4	at +5	at -1	at -2	at -3	at -4	at -5
A fixed	0.811	0.623	0.572	0.823	2.94	0.585	1.06	0.944	1.14	1.01
D fixed	0.352	1.4	0.818	1.14	0.931	2.54	1.38	1.84	1.64	1.42
E fixed	0.566	2.01	0.647	1.39	0.71	2.03	1.75	2.52	2.01	1.38
F fixed	1.94	1.17	1.42	0.906	1.21	0.91	0.593	0.712	0.88	0.793
G fixed	0.379	0.43	0.621	1.21	0.692	0.401	1.08	1.09	1.22	1.31
H fixed	1.55	0.88	0.767	1.13	0.954	0.985	1.05	1	0.977	1.08
I fixed	1.8	1.21	2.44	0.869	0.75	1.89	0.902	0.626	0.732	0.929
K fixed	0.29	0.37	0.27	0.602	0.913	0.311	0.693	0.614	0.699	0.845
L fixed	1.25	1.05	2.03	0.841	0.922	1.12	0.839	0.639	0.808	0.898
M fixed	1.53	1.1	1.53	1.07	0.841	0.828	0.681	0.834	0.767	0.908
N fixed	0.341	1.04	0.425	0.873	0.832	1.03	1.05	1.25	1.03	1.1
P fixed	0.49	0.708	0.891	1.37	0.769	0.65	1.19	0.862	1.1	1.17
Q fixed	0.678	0.705	0.524	0.94	0.927	0.646	1.11	0.901	1.07	1.03
R fixed	0.458	0.535	0.364	0.781	0.865	0.292	0.657	0.73	0.667	0.866
S fixed	0.799	0.864	0.579	0.938	0.916	0.467	1.07	1.07	0.849	0.856
T fixed	0.807	0.934	0.686	0.88	0.625	0.966	1	0.883	0.644	0.807
V fixed	1.74	1.2	1.92	0.817	0.81	1.38	1.25	0.683	0.741	0.779
W fixed	2.22	1.77	1.5	1.43	1.4	0.952	0.639	0.794	1.02	0.811
pThr fixed	0.826	1.95	0.731	1	0.75	1.29	1.3	1.84	1.85	1.29
pTyr fixed	3.85	6.17	1.24	1.34	0.82	7.16	1.79	2.69	2.45	1.36

FGR, construct: Full length, human (from UniProt P09769)
relative phosphorylation
Details	at +1	at +2	at +3	at +4	at +5	at -1	at -2	at -3	at -4	at -5
A fixed	2.2	1.05	0.869	0.85	0.72	0.929	0.952	0.88	1.03	0.985
D fixed	0.746	0.588	0.464	0.599	0.901	1.07	1.48	1.52	1.29	1.1
E fixed	0.732	0.949	0.432	0.759	0.875	1.89	1.37	1.52	1.36	0.85
F fixed	0.643	1.12	2.33	1.21	1.25	0.601	0.711	0.915	1.07	1.07
G fixed	2.67	0.888	0.927	1.31	0.896	0.558	1.5	1.15	1.15	1.24
H fixed	0.762	0.846	0.969	0.953	0.936	1.45	0.995	0.999	0.933	0.966
I fixed	0.827	0.906	1.3	0.792	0.71	1.86	0.626	0.635	0.829	0.907
K fixed	0.485	0.947	0.664	1.16	1.27	0.32	0.641	0.792	0.856	0.991
L fixed	0.669	0.903	0.954	0.884	0.831	1.02	0.747	0.746	1.07	0.939
M fixed	1.01	1.02	0.806	1.05	0.751	0.754	0.576	0.799	0.83	0.945
N fixed	0.757	1.02	0.666	0.928	1.14	0.683	1.56	1.26	0.798	1.06
P fixed	0.226	0.839	1.02	1.2	0.977	2.09	0.878	1.02	1.17	1.15
Q fixed	0.959	0.987	0.726	1.06	0.95	0.753	1.16	0.922	1.04	0.944
R fixed	0.519	1.22	0.98	1.39	1.4	0.291	0.738	0.883	0.875	1.1
S fixed	1.52	1.14	0.882	0.862	1.11	0.572	1.43	1.19	0.841	0.875
T fixed	1.14	1.2	0.795	0.893	1.06	1.21	1.03	0.908	0.681	0.748
V fixed	0.955	0.904	1.05	0.781	0.712	1.38	0.738	0.594	0.733	0.749
W fixed	1.17	1.48	2.17	1.33	1.52	0.556	0.859	1.26	1.45	1.38
pThr fixed	1.35	1.11	0.787	0.528	0.963	1.12	1.48	1.74	1.05	1.02
pTyr fixed	1.57	1.13	0.585	0.593	0.94	0.966	2.02	1.99	1.38	1.05

FLT1, construct: aa748-end, human (from UniProt P17948)
relative phosphorylation
Details	at +1	at +2	at +3	at +4	at +5	at -1	at -2	at -3	at -4	at -5
A fixed	0.624	0.689	0.604	0.797	0.722	0.496	0.885	0.899	0.91	0.956
D fixed	0.478	1.49	0.636	1.1	1.01	3.57	1.75	1.66	1.4	1.24
E fixed	0.487	0.899	0.582	0.817	0.933	2.46	1.57	1.66	1.38	1.1
F fixed	2.3	1.38	1.99	0.981	1.13	0.92	0.797	1.01	0.956	1.14
G fixed	0.478	0.439	0.633	0.845	0.911	0.446	1.11	1.03	1.1	1.1
H fixed	1.38	1.17	0.7	1.3	1.17	1.18	1.07	1.22	1.12	1.24
I fixed	1.34	0.698	1.46	0.709	0.639	0.948	0.597	0.599	0.653	0.745
K fixed	0.683	1.21	0.625	1.39	1.27	0.432	1.01	0.853	1.01	1.14
L fixed	0.873	0.86	1.63	0.787	0.844	0.639	0.633	0.729	0.693	0.727
M fixed	1	0.867	1.6	0.8	0.786	0.559	0.696	0.73	0.797	0.801
N fixed	0.533	1.19	0.755	1.06	1.11	1.16	1.16	1.17	0.929	0.953
P fixed	0.415	0.574	1.02	1.4	1.28	0.525	1.08	0.781	0.897	1.03
Q fixed	0.957	0.926	0.684	0.88	1.09	0.81	1.14	1.05	1.02	0.936
R fixed	0.875	1.53	0.729	1.46	1.25	0.458	1.13	1.01	1.1	1.11
S fixed	0.67	0.923	0.698	0.968	0.83	0.462	1.14	1.08	0.867	0.982
T fixed	0.987	1.11	0.666	0.83	0.839	0.705	1.04	0.906	0.887	0.891
V fixed	1.94	0.766	1.09	0.681	0.723	0.747	0.655	0.594	0.701	0.763
W fixed	1.63	1.32	1.27	0.985	1.12	0.649	0.724	1.01	1.34	1.02
pThr fixed	0.947	2.03	0.788	1.08	0.963	2.55	1.42	2.05	1.86	1.78
pTyr fixed	2.58	2.77	0.88	0.609	0.679	2.54	2.3	3.12	2.64	1.66
